Assay type in all cases: cell-based, Saccharomyces cerevisiae
One experiment deals with BUD14. Description: DHFR-PCA on solid medium, bait BUD14 (Fig. 1B). The note with it: bait BUD14, label = prey; for medrep (log2 median colony size normalized to plate background, PCA score): 4 replicates. The text has this: (§1) Supplement 41467_2021_21873_MOESM8_ESM.xlsx, sheet "Fig1B" | column: medsize; medrep; Ratio; Score
For another experiment, the system named is BOI1. Description: DHFR-PCA on solid medium, bait BOI1 (Fig. 1B). The note with it: bait BOI1, label = prey; for medrep (log2 median colony size normalized to plate background, PCA score): 3-8 replicates; for Ratio (SH3-deleted/WT medrep): only significant differences showed, PPIs completely lost have a ratio of 0.1 and the gained PPIs 2.5.
Description: as §1

The test system of another experiment is BEM1-2. Nature of the experiment: DHFR-PCA on solid medium, bait BEM1-2 (Fig. 1B). The note with it: bait BEM1-2, label = prey; for medrep (log2 median colony size normalized to plate background, PCA score): 2-8 replicates; for Ratio (SH3-deleted/WT medrep): only significant differences showed, PPIs completely lost have a ratio of 0.1 and the gained PPIs 2.5.
Description: as §1

The next experiment concerns BOI2. Description: DHFR-PCA on solid medium, bait BOI2 (Fig. 1B). The note with it: bait BOI2, label = prey; 3-8 replicates.
Description: as §1

Another experiment concerns BEM1-1. Description: DHFR-PCA on solid medium, bait BEM1-1 (Fig. 1B). The note with it: bait BEM1-1, label = prey; 2-8 replicates.
Description: as §1

The subject of the next experiment is BBC1. Description: DHFR-PCA on solid medium, bait BBC1 (Fig. 1B). The note with it: bait BBC1, label = prey; for medrep (log2 median colony size normalized to plate background, PCA score): 2-4 replicates; for Ratio (SH3-deleted/WT medrep): only significant differences showed, PPIs completely lost have a ratio of 0.1 and the gained PPIs 2.5.
Description: as §1

The subject of a further experiment is ABP1. Description: DHFR-PCA on solid medium, bait ABP1 (Fig. 1B). The note with it: bait ABP1, label = prey.
Description: as §1

Setting [1] is: only significant differences showed, PPIs completely lost have a ratio of 0.1 and the gained PPIs 2.5.

B1: YER149C (protein, UniProt P40091 1-420, looked up)
Protein PEA2: MHKFDLELSRRANPLLFSAERYEEYPLKYDELKQYLLSQNPSHPHHNSRPYTSIDYFDYLLYRSKNDESEIDLDKKLVSEFALYYVQKEHLNSDDLNPTLNELLKLQPKSADWYEMMLRILESINTTGIDQLTKENNNSFPNSKRARSSTNMGGTDKFNKGAYHTDKADDDKNEILQELTSFLMSNSIQKGIDIKPIPLDDPVKFLKNGINSILDTCVSLEKNTSSPPISPNAAAIQEEDSSKKLEELETAFSDLQLAHNFLTKQFENDRAEYVQDIEKLTRTNRELQDKLLNNHSNLSKTEKKLHELEQENKELEKANNKLNSSRHNFGMSSPASSPVTWDPSSPSSVGSPTSGSGSRSLSIMTSEFKKVLTSTQRKYEKELSDEREHRFKLERELALLKNAEANTSLALNRDDPPDML
As to B1, the “medrep (log2 median colony size normalized to plate background, PCA score)” value in the experiment on BUD14 worked out at 1.879. For the same molecule, in the experiment on BUD14 (setting [1]), the “Ratio (SH3-deleted/WT medrep)” value was determined as 0.1.

B2: YGR281W (protein, UniProt P53049 1-1477, looked up)
Oligomycin resistance …: MTITVGDAVSETELENKSQNVVLSPKASASSDISTDVDKDTSSSWDDKSLLPTGEYIVDRNKPQTYLNSDDIEKVTESDIFPQKRLFSFLHSKKIPEVPQTDDERKIYPLFHTNIISNMFFWWVLPILRVGYKRTIQPNDLFKMDPRMSIETLYDDFEKNMIYYFEKTRKKYRKRHPEATEEEVMENAKLPKHTVLRALLFTFKKQYFMSIVFAILANCTSGFNPMITKRLIEFVEEKAIFHSMHVNKGIGYAIGACLMMFVNGLTFNHFFHTSQLTGVQAKSILTKAAMKKMFNASNYARHCFPNGKVTSFVTTDLARIEFALSFQPFLAGFPAILAICIVLLIVNLGPIALVGIGIFFGGFFISLFAFKLILGFRIAANIFTDARVTMMREVLNNIKMIKYYTWEDAYEKNIQDIRTKEISKVRKMQLSRNFLIAMAMSLPSIASLVTFLAMYKVNKGGRQPGNIFASLSLFQVLSLQMFFLPIAIGTGIDMIIGLGRLQSLLEAPEDDPNQMIEMKPSPGFDPKLALKMTHCSFEWEDYELNDAIEEAKGEAKDEGKKNKKKRKDTWGKPSASTNKAKRLDNMLKDRDGPEDLEKTSFRGFKDLNFDIKKGEFIMITGPIGTGKSSLLNAMAGSMRKTDGKVEVNGDLLMCGYPWIQNASVRDNIIFGSPFNKEKYDEVVRVCSLKADLDILPAGDMTEIGERGITLSGGQKARINLARSVYKKKDIYLFDDVLSAVDSRVGKHIMDECLTGMLANKTRILATHQLSLIERASRVIVLGTDGQVDIGTVDELKARNQTLINLLQFSSQNSEKEDEEQEAVVAGELGQLKYESEVKELTELKKKATEMSQTANSGKIVADGHTSSKEERAVNSISLKIYREYIKAAVGKWGFIALPLYAILVVGTTFCSLFSSVWLSYWTENKFKNRPPSFYMGLYSFFVFAAFIFMNGQFTILCAMGIMASKWLNLRAVKRILHTPMSYIDTTPLGRILNRFTKDTDSLDNELTESLRLMTSQFANIVGVCVMCIVYLPWFAIAIPFLLVIFVLIADHYQSSGREIKRLEAVQRSFVYNNLNEVLGGMDTIKAYRSQERFLAKSDFLINKMNEAGYLVVVLQRWVGIFLDMVAIAFALIITLLCVTRAFPISAASVGVLLTYVLQLPGLLNTILRAMTQTENDMNSAERLVTYATELPLEASYRKPEMTPPESWPSMGEIIFENVDFAYRPGLPIVLKNLNLNIKSGEKIGICGRTGAGKSTIMSALYRLNELTAGKILIDNVDISQLGLFDLRRKLAIIPQDPVLFRGTIRKNLDPFNERTDDELWDALVRGGAIAKDDLPEVKLQKPDENGTHGKMHKFHLDQAVEEEGSNFSLGERQLLALTRALVRQSKILILDEATSSVDYETDGKIQTRIVEEFGDCTILCIAHRLKTIVNYDRILVLEKGEVAEFDTPWTLFSQEDSIFRSMCSRSGIVENDFENRS
On to B2, for which the “medrep (log2 median colony size normalized to plate background, PCA score)” value in the experiment with BOI1 came to 1.486; in the experiment on BEM1-2, 2.579; with BOI2 it was 2.696; in the experiment on BEM1-1, 2.579; in the experiment with BBC1 it was 1.516. The “Ratio (SH3-deleted/WT medrep)” value with BOI1 was determined as 2.5; in the experiment on BEM1-2, 0.1; with BBC1 it was 0.4155.

B3: YML016C (protein, UniProt P26570 2-692, looked up)
Serine/threonine-protein …: GNSSSKSSKKDSHSNSSSRNPRPQVSRTETSHSVKSAKSNKSSRSRRSLPSSSTTNTNSNVPDPSTPSKPNLEVNHQRHSSHTNRYHFPSSSHSHSNSQNELLTTPSSSSTKRPSTSRRSSYNTKAAADLPPSMIQMEPKSPILKTNNSSTHVSKHKSSYSSTYYENALTDDDNDDKDNDISHTKRFSRSSNSRPSSIRSGSVSRRKSDVTHEEPNNGSYSSNNQENYLVQALTRSNSHASSLHSRKSSFGSDGNTAYSTPLNSPGLSKLTDHSGEYFTSNSTSSLNHHSSRDIYPSKHISNDDDIENSSQLSNIHASMENVNDKNNNITDSKKDPNEEFNDIMQSSGNKNAPKKFKKPIDIDETIQKLLDAGYAAKRTKNVCLKNNEILQICIKAREIFLSQPSLLELSPPVKIVGDVHGQYGDLLRLFTKCGFPPSSNYLFLGDYVDRGKQSLETILLLFCYKIKYPENFFLLRGNHECANVTRVYGFYDECKRRCNIKIWKTFIDTFNTLPLAAIVAGKIFCVHGGLSPVLNSMDEIRHVVRPTDVPDFGLINDLLWSDPTDSPNEWEDNERGVSYCYNKVAINKFLNKFGFDLVCRAHMVVEDGYEFFNDRSLVTVFSAPNYCGEFDNWGAVMSVSEGLLCSFELLDPLDSAALKQVMKKGRQERKLANQQQQMMETSITNDNESQQ
On to B3, for which the “medrep (log2 median colony size normalized to plate background, PCA score)” value was 1.566 with BOI1; 2.424 in the experiment on BEM1-2; 2.013 in the experiment with BOI2; 2.424 in the experiment on BEM1-1; 2.329 in the experiment on ABP1 (2-4 replicates); 1.933 in the experiment on BBC1. Further, the “Ratio (SH3-deleted/WT medrep)” value in the experiment on BOI1 worked out at 2.5; in the experiment on BEM1-2, 0.1; with ABP1 (setting [1]), 1.5236; in the experiment on BBC1 it was 0.1.

B4: YHR158C (protein, UniProt P38853 1-1164, looked up)
Kelch repeat-containing …: MAGFSFAKKFTHKKHGKTPSDASISDQSREASLSTPPNEKFFTKQETPQKGRQFSQGYHSNVNKTSSPPMFARKQVSESRIQPSAVPPQQRNVSGPSTTLHKQLSKQREYTVWNRIKLQNSPFPRYRHVASAYVTDKNQIYVIGGLHDQSVYGDTWILTAFDNATRFSTTTIDISEATPPPRVGHAAVLCGNAFVVFGGDTHKVNKEGLMDDDIYLLNINSYKWTVPAPVGPRPLGRYGHKISIIATTQMKTKLYVFGGQFDDTYFNDLAVYDLSSFRRPDSHWEFLKPRTFTPPPITNFTMISYDSKLWVFGGDTLQGLVNDVFMYDPAINDWFIIDTTGEKPPPVQEHATVVYNDLMCVVGGKDEHDAYLNSVYFLNLKSRKWFKLPVFTAGIPQGRSGHSLTLLKNDKILIMGGDKFDYARVEEYDLHTSDIDMQRGTIVYTLDLARIKDLCPGVMDVPTDTPTPRNGNLDLATPVTPTSHQTKNMNVPISAAPLASAPSPAPKDFSDADRLNREVHNRNVSTEHQNQSHPVNSESHLIAEPNILTPYVPSESSQTPVMKITSNKPFDTPTIQKEPDLSETMDPTVGNQRIPSSIYGDNLTPANQIKNNSPILETLPSNEIKTPQNGNIEEIKHLPDADEKIDSTTTFDQEINGDKLGTSSMSKVEEDGNVADEDDEIGVAQMASSPSKDQFKIKHYNESSELSQNNTEIDKLSEPVDITIKKSDTAGHDSANHVIDASDEKNVSPMGDVPTDTKNEEASVPINRDATTEVVDRALFEKLRSELQSLKELTHEKALEAGAHIKELETELWQLKSQKNSGTTKEIDELDSVRLQSKCEILEADNHSLEDKVNELEELVNSKFLDIENLNEVIQFQNEKIKSLELEPNYKEKLEELQIEHENLSRENERLKNESKQHNEDIINNVANYSSQLGSLISHWKENRANSSFLESSSSLISVSDENGEKTVGEPYGDQSRHHRVVINKLTNRLDDLLERSQELTISKEKLSSEYHALKMEHSSLSQDVLVKENEIKKIQNDYKESISSMDSASKALMVSQRELEKYKSLNKKLIDELDELKFKNGVCSENFENGLRSTEESSNNVKNSNSIRENQFNIKINDLKAELFITNQERDDLKSEVLELKKRLLNLENNTKQVNEDADSDLL
In the case of B4, the “medrep (log2 median colony size normalized to plate background, PCA score)” value in the experiment on BUD14 was determined as 3.841.

B5: YGR238C (protein, UniProt P50090 1-882, looked up)
Kelch repeat-containing …: MVPFKLTNKVPTDTGPSLISAQSVPRPIVFMDNRNNTRIVTPTLPPNQHRGISGASTALPWSPESKNTGKYIWNRVKLKNSPFPRYRHSSSFIVTNDNRIFVTGGLHDQSVYGDVWQIAANADGTSFTSKRIDIDQNTPPPRVGHASTICGNAYVVFGGDTHKLNKNGLLDDDLYLFNINSYKWTIPQPIGRRPLGRYGHKISIIASNPMQTKLYLFGGQVDETYFNDLVVFDLSSFRRPNSHWEFLEPVGDLPPPLTNHTMVAYDNKLWVFGGETPKTISNDTYRYDPAQSEWSKVKTTGEKPPPIQEHASVVYKHLMCVLGGKDTHNAYSNDVYFLNLLSLKWYKLPRMKEGIPQERSGHSLTLMKNEKLLIMGGDKTDYASPNIHDLQTSETDQGEGTLLYTLDLSSLNELCPGIMCESLHAGESFSNSLSGGFTPSKSTESENQEIINILTPRLPDSKVLSYNDIDEGAGSYSSALDDKAFERKSDREEKKPQSSKVDSSINKESPGTGIKVSKKNFPVLRGLTVDSEEYGSSSYKDTSCQKGIPKNLFDDLNLNLQTLRLEAQQKELETARHISQLEKEVQRLMVIKEASKDSNFQTARLKNLEIQKTFLESRINDLKNLLMVKLSQASKLCDQITIQNNGLKTCSEHVTIKRDIIDLENKCDVLKRQNEILVNNMQKITPELHTYLNESSCYLGKLLKSYPTSARPPSSEKDNQIYEKDSLNKIEKVINEMHETVRAKEKLHLETQKLNDERDSLRANLLDNNNKLDALRKLSDGSSKSMDLTKKAIHLSQSELEKYRKNNDDLQKEIDRIKTEQAEQDDKQEQRGAITHGNFDAFHRMKINNLKAELYMSKENRDSLKDELLALKKKLYTLEQKK
With B5, the “medrep (log2 median colony size normalized to plate background, PCA score)” value in the experiment with BUD14 is reported as 3.527.
